Reference: US20190315799

Test system: SpyTag-CsgA

Substance	amylase activity	PTDH activity (OD 340 nm, absorbance of formed NADH)
amylase-SpyCatcher	amylase activity was observed throughout the experiment	
PTDH-SpyCatcher		the thin cotton cloth exhibited almost exclusive specific-enzyme binding
